Assay results from patent US20180258158A1 (Bristol-Myers Squibb, published 2018).
Positions count from the first letter of the chain named. Numbers in names are those of the source.

B1: ADX_6734_A02 (I43A/Y44E) (designed binder)
chain: MGVSDVPRDLEVVAATPTSLLISWDAPAVTVRYYRITYGREVQKYSDLGPLYAEQEFTVPGSKSTATISGLKPGVDYTITVYAVTGSGESPASSKPISINYRTEIDKPSQHHHHHH
B2: ADX_7016_A01 (parent PKE2 Adnectin) (designed binder)
chain: B1 chain with A53I, E54Y
notes: N-terminal Met may be cleaved; also called 2629_E06; ADX_2629_E06
B3: ADX_7016_G01 (Y44S) (designed binder)
chain: B1 chain with A53I, E54S
notes: Full His6-tagged entry; also called 6727_G02

Tests used:
[1] = biological target: T1, mouse serum albumin (MSA), full length (mouse, UniProt P07724 25-608); assay: direct binding ELISA, coated MSA, anti-His-HRP; design: unit not given here
T1 construct: mature; Immobilized on CM5 chip (SPR) or coated on plates (ELISA); also called mouse albumin; murine serum albumin
Target sequence in this assay (P07724 25-608): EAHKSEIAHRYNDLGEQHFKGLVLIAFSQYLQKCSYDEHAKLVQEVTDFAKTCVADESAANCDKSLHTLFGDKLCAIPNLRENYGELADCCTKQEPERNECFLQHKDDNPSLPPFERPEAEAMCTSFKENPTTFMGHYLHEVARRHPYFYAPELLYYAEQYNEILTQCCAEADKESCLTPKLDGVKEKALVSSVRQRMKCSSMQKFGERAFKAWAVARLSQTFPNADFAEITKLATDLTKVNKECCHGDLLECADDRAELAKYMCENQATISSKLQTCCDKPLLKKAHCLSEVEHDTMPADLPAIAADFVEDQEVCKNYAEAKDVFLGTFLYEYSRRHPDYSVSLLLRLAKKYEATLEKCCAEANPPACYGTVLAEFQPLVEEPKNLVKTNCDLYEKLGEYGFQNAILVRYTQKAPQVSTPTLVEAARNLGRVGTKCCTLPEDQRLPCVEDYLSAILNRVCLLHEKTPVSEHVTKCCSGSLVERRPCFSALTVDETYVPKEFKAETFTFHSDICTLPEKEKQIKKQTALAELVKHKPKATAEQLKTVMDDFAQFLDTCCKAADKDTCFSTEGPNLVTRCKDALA

[2] = biological target: T2, human serum albumin (HSA), full length (human, UniProt P02768 25-609); assay: not stated; lower end of the range 3-6 nM
T2 construct: mature; Immobilized on CM5 chip (SPR) or coated on plates (ELISA)

[3] = biological target: T2, human serum albumin (HSA), full length; assay: not stated; upper end of the range 3-6 nM
[4] = biological target: T2, human serum albumin (HSA), full length; assay: SPR, immobilized HSA, 500 nM Adnectin, 25 C
Protocol: (§1) Measurements were conducted by SPR and ELISA. SPR was conducted as follows. Full length HSA or mouse albumin was immobilized on a Biacore T series CM5 chip at 15 ug/mL in 10 mM acetate buffer (pH 5.0) buffer using standard NHS/EDC coupling, to a surface density of approximately 1000-1100 RU. For off-rate measurements at 25° C., PKE Adnectins were applied as analytes at 500 nM in HBS-P+(0.01 M HEPES pH 7.4, 0.15 M NaCl, 0.005% v/v Surfactant P20) running buffer at a flow rate of 20ul/min for 120 s over the immobilized albumins, followed by 800 s for dissociation. […] Regeneration of the chip surface between cycles was accomplished with two 30 second pulses of 10 mM Glycine, pH 2.0. Kinetic traces of reference-subtracted sensorgrams were fit to a 1:1 binding model for affinity using the Biaevaluation software. Only the dissociation phase was fit for determination of off-rates.

[5] = biological target: T1, mouse serum albumin (MSA), full length; assay: SPR, immobilized MSA, 500 nM Adnectin, 25 C
Protocol: as §1

[6] = biological target: T2, human serum albumin (HSA), full length; assay: SPR kinetics, immobilized albumin, 1:1 fit, 37 C
Protocol: as §1, with “The SPR” for “Measurements were conducted by SPR and ELISA. SPR”, “length human, mouse, rat and cynomolgus monkey serum” for “length HSA or mouse”, “albumin were” for “albumin was”

[7] = biological target: T1, mouse serum albumin (MSA), full length; assay: SPR kinetics, immobilized albumin, 1:1 fit, 37 C
Protocol: as §1, with “The SPR” for “Measurements were conducted by SPR and ELISA. SPR”, “length human, mouse, rat and cynomolgus monkey serum” for “length HSA or mouse”, “albumin were” for “albumin was”

[8] = biological target: T3, rat serum albumin (rat SA), full length (rat, UniProt P02770 25-608); assay: SPR kinetics, immobilized albumin, 1:1 fit, 37 C
T3 construct: mature; Immobilized on CM5 chip (SPR); also called RSA
Protocol: as §1, with “The SPR” for “Measurements were conducted by SPR and ELISA. SPR”, “length human, mouse, rat and cynomolgus monkey serum” for “length HSA or mouse”, “albumin were” for “albumin was”

[9] = biological target: T4, cynomolgus monkey serum albumin (cynoSA), full length (cynomolgus monkey, UniProt A2V9Z4 25-608); assay: SPR kinetics, immobilized albumin, 1:1 fit, 37 C
T4 construct: mature; Immobilized on CM5 chip (SPR); the cynoSA experiment used a different Biacore chip; also called CySA
Protocol: as §1, with “The SPR” for “Measurements were conducted by SPR and ELISA. SPR”, “length human, mouse, rat and cynomolgus monkey serum” for “length HSA or mouse”, “albumin were” for “albumin was”

[10] = biological target: T2, human serum albumin (HSA), full length; assay: SPR off-rate, immobilized HSA, 500 nM Adnectin, 25 C
Protocol: as §1

[11] = biological target: T1, mouse serum albumin (MSA), full length; assay: SPR off-rate, immobilized MSA, 500 nM Adnectin, 25 C
Protocol: as §1

[12] = biological target: T2, human serum albumin (HSA), full length; assay: SPR kinetics (Biacore, CM5): albumin immobilised, Adnectin concentration series as analyte, 37 C, 1:1 binding fit; curve Fc=2-1 [panel HSA]
Protocol: as §1, with “The SPR” for “Measurements were conducted by SPR and ELISA. SPR”, “length human, mouse, rat and cynomolgus monkey serum” for “length HSA or mouse”, “albumin were” for “albumin was”

[13] = biological target: T1, mouse serum albumin (MSA), full length; assay: SPR kinetics (Biacore, CM5): albumin immobilised, Adnectin concentration series as analyte, 37 C, 1:1 binding fit; curve Fc=3-1 [panel MSA]
Protocol: as §1, with “The SPR” for “Measurements were conducted by SPR and ELISA. SPR”, “length human, mouse, rat and cynomolgus monkey serum” for “length HSA or mouse”, “albumin were” for “albumin was”

[14] = biological target: T3, rat serum albumin (rat SA), full length; assay: SPR kinetics (Biacore, CM5): albumin immobilised, Adnectin concentration series as analyte, 37 C, 1:1 binding fit; curve Fc=4-1 [panel Rat SA]
Protocol: as §1, with “The SPR” for “Measurements were conducted by SPR and ELISA. SPR”, “length human, mouse, rat and cynomolgus monkey serum” for “length HSA or mouse”, “albumin were” for “albumin was”

[15] = biological target: T4, cynomolgus monkey serum albumin …; assay: SPR kinetics (Biacore, CM5): ligand '15ug/ml CynoSA in Acetate 5.0' immobilised, Adnectin concentration series as analyte, 37 C, 1:1 binding fit; curve Fc=2-1 [panel Cyno SA]
Protocol: as §1, with “The SPR” for “Measurements were conducted by SPR and ELISA. SPR”, “length human, mouse, rat and cynomolgus monkey serum” for “length HSA or mouse”, “albumin were” for “albumin was”

[16] = biological target: T2, human serum albumin (HSA), full length; assay: SPR off-rate ratio to parent ADX_7016_A01, HSA, 25 C
Protocol: as §1

[17] = biological target: T1, mouse serum albumin (MSA), full length; assay: SPR off-rate ratio to parent ADX_7016_A01, MSA, 25 C
Protocol: as §1

[18] = biological target: T4, cynomolgus monkey serum albumin …; assay: SPR kinetics (Biacore, CM5): ligand '15ug/ml CynoSA in Acetate5.0' immobilised, Adnectin concentration series as analyte, 37 C, 1:1 binding model; curve Fc=2-1 [panel Cyno SA]
Protocol: as §1, with “The SPR” for “Measurements were conducted by SPR and ELISA. SPR”, “length human, mouse, rat and cynomolgus monkey serum” for “length HSA or mouse”, “albumin were” for “albumin was”

T4 sequence (A2V9Z4 25-608): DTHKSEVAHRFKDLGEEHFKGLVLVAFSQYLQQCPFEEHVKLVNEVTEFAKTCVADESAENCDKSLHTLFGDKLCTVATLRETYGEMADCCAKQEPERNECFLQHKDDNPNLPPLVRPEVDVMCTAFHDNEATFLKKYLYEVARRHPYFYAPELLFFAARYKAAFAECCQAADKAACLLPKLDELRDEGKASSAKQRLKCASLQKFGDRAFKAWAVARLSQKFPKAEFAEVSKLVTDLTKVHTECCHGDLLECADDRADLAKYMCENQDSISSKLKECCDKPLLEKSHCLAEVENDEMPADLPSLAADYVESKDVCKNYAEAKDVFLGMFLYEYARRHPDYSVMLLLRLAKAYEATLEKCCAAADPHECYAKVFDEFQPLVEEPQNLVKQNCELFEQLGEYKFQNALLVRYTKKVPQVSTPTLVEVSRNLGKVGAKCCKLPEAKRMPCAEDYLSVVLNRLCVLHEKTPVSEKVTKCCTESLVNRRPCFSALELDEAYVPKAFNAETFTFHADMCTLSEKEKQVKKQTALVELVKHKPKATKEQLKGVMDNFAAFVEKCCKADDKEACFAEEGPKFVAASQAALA
T3 sequence (P02770 25-608): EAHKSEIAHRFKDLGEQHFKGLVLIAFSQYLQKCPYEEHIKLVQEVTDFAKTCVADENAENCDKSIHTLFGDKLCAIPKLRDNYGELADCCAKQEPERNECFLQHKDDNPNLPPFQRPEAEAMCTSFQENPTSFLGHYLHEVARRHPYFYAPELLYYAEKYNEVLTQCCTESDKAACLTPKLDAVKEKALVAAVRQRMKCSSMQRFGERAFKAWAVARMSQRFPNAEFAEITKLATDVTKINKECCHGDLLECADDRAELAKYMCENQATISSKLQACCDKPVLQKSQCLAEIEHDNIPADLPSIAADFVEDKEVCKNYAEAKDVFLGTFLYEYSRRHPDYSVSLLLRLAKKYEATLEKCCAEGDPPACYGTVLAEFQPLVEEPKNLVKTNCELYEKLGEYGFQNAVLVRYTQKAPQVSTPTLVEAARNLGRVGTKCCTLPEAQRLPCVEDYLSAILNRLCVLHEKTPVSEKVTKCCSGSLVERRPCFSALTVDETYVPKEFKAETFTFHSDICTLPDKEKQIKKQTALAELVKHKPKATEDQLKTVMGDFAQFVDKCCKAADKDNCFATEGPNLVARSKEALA
T2 sequence (P02768 25-609): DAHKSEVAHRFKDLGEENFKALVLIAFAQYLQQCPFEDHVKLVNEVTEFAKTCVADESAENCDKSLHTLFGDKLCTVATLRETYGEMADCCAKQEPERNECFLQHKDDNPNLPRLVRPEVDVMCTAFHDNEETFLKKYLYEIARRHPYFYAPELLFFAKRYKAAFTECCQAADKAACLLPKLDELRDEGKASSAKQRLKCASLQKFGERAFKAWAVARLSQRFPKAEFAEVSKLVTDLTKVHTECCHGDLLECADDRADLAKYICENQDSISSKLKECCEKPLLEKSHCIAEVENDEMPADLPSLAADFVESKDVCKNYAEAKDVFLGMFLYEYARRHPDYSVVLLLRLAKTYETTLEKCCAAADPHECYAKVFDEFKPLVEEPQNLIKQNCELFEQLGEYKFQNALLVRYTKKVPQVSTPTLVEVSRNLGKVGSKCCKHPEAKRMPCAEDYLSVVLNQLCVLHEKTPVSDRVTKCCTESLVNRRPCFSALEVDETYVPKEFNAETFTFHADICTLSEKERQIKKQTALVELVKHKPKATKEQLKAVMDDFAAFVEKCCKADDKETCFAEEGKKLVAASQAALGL

| Binder | HSA Binding (RU) [4] [RU] | MSA Binding (RU) [5] [RU] | Kd [6] [nM] | koff [6] [s⁻¹] | kon [6] [M⁻¹ s⁻¹] | Kd [7] [nM] | koff [7] [s⁻¹] | kon [7] [M⁻¹ s⁻¹] | Kd [8] [nM] | koff [8] [s⁻¹] | kon [8] [M⁻¹ s⁻¹] | Kd [9] [nM] | koff [9] [s⁻¹] | kon [9] [M⁻¹ s⁻¹] | koff [10] [s⁻¹] | koff [11] [s⁻¹] | other results |
| --- | --- | --- | --- | --- | --- | --- | --- | --- | --- | --- | --- | --- | --- | --- | --- | --- | --- |
| B1 | – | – | – | – | – | – | – | – | – | – | – | – | – | – | – | – | MSA DB ELISA (OD450) Ymax obs [1]: 100; MSA DB ELISA (OD450) Ymin obs [1]: 3 |
| B2 | 54 | 95 | 6.2 | 0.000378 | 61200 | 2.8 | 0.000668 | 237000 | 8 | 0.00143 | 180000 | 4.4 | 0.000391 | 89400 | 0.000269 | 0.000428 | Kd [2]: 3 to 6 nM; Kd [3]: 3 to 6 nM; koff [12]: 0.000378 s⁻¹; kon [12]: 61200 M⁻¹ s⁻¹; koff [13]: 0.000668 s⁻¹; kon [13]: 237000 M⁻¹ s⁻¹; koff [14]: 0.00143 s⁻¹; kon [14]: 180000 M⁻¹ s⁻¹; Kd [15]: 4.38 nM; koff [15]: 0.000391 s⁻¹; kon [15]: 89400 M⁻¹ s⁻¹ |
| B3 | 33 | 64 | 83.7 | 0.0032 | 38200 | 26.8 | 0.00629 | 235000 | 104 | 0.0346 | 331000 | 68.1 | 0.00426 | 62500 | 0.0015 | 0.00213 | HSA kd/Parent kd [16]: 5.6; MSA kd/Parent kd [17]: 5; Kd [18]: 68.1 nM; koff [18]: 0.00426 s⁻¹; kon [18]: 62500 M⁻¹ s⁻¹ |
